Among the data in paper PMC11596305, “A strategy to design protein-based antagonists against type I cytokine receptors” (PLOS Biology, 2024) are Kd values, retold here.

Common to all, as to experiment: SPR; steady-state fitting of TPOR binding; further details in S1 Methods (not shown)
Holding throughout (conditions): both partners purified

Experiment [1] has as its target Thrombopoietin receptor (TPOR) (UniProt P40238 26-635).
Experiment [2] deals with buto_a3.
Experiment [3] deals with buto_a3_t2.

B1: Thrombopoietin (TPO), bacterially expressed (ligand)
chain: SPAPPACDLRVLSKLLRDSHVLHSRLSQCPEVHPLPTPVLLPAVDFSLGEWKTQMEETKAQDILGAVTLLLEGVMAARGQLGPTCLSSLLGQLSGQVRLLLGALQSLLGTQLPPQGRTTAHKDPNAIFLSFQHLLRGKVRFLMLVGGSTLCVRRAPPTTAVPS
modifications: expressed in E. coli, non-glycosylated; N-terminal His tag/thrombin site omitted / The construct is described only in S1 Methods. The extracellular domain after the signal peptide is assumed as the …
Consider B1, for which, in experiment [1], binding was characterised by a dissociation constant (Kd) of 4.09 ± 1.84 µM.

B2: Thrombopoietin receptor (TPOR) (receptor)
chain: QDVSLLASDSEPLKCFSRTFEDLTCFWDEEEAAPSGTYQLLYAYPREKPRACPLSSQSMPHFGTRYVCQFPDQEEVRLFFPLHLWVKNVFLNQTRTQRVLFVDSVGLPAPPSIIKAMGGSQPGELQISWEEPAPEISDFLRYELRYGPRDPKNSTGPTVIQLIATETCCPALQRPHSASALDQSPCAQPTMPWQDGPKQTSPSREASALTAEGGSCLISGLQPGNSYWLQLRSEPDGISLGGSWGSWSLPVTVDLPGDAVALGLQCFTLDLKNVTCQWQQQDHASSQGFFYHSRARCCPRDRYPIWENCEEEEKTNPGLQTPQFSRCHFKSRNDSIIHILVEVTTAPGTVHSYLGSPFWIHQAVRLPTPNLHWREISSGHLELEWQHPSSWAAQETCYQLRYTGEGHQDWKVLEPPLGARGGTLELRPRSRYRLQLRARLNGPTYQGPWSSWSDPTRVETATETAW
modifications: The construct is described only in S1 Methods. The extracellular domain after the signal peptide is assumed as the SPR receptor; glycosylation is possible.
Take B2: the Kd is 10.6 ± 1.49 µM in experiment [2] and 0.88 ± 0.16 µM in experiment [3].
